From patent US20050100989A1 (MERCK SERONO, published 2005) come the findings set out here.

For assay [1], the target named is T1, human FSH receptor (human, UniProt P23945 18-695).
T1 sequence (looked up): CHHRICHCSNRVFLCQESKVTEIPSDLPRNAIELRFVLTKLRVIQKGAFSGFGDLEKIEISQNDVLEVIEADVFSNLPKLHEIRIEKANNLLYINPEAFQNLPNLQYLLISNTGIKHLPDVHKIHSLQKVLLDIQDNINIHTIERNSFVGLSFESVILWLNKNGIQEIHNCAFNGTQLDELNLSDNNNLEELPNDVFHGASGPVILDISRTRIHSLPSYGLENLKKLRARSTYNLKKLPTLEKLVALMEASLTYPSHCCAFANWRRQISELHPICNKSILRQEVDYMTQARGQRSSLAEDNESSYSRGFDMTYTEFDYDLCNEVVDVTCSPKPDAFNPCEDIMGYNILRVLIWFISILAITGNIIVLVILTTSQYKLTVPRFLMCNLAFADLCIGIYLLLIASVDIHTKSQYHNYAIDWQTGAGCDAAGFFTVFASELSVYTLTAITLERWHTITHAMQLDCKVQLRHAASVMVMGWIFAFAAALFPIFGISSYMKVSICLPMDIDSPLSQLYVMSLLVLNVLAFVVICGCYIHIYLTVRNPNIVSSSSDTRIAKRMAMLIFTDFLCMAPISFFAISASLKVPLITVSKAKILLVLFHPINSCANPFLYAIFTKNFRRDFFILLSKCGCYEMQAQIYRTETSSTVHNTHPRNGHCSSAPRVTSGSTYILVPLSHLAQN
In words: cell-based or functional assay.

Assay [2] addresses T1, human FSH receptor. In words: competition with 125I radiolabelled FSH on membrane preparations with human FSH receptor.
Assay [3] concerns the target T1, human FSH receptor. In words: cell-based or functional assay. The source holds these as a separate data set.
Assay [4] has as its target T1, human FSH receptor. In words: competition with 0.4 nM 125I-FSH on CHO membranes bearing human FSHR, filtration, single site model.
Experimental: Large batches of CHO cells line which recombinantly express human FSH receptor or human LH receptor were grown and disrupted by nitrogen cavitation (20 min equilibration to 900 psi, followed by rapid pressure release) in 0.025 M Tris pH 7.4 containing 0.25 M sucrose, 10 mM MgCl₂, 1 mM EDTA and one part per thousand Sigma Protease Inhibitor cocktail (p8350). Following preliminary clarification (10 min×1000×g at 4° C.) the membranes fraction was pelletted (60 min×100,000×g×4° C.) by ultracentrifugation. The membranes fraction was resuspended in binding buffer (0.01 M Tris pH 7.4 containing 5 mM MgCl₂), protein concentration estimated by Bradford (BioRad) protein assay and stored frozen at −80° C. for future use. Typically 15 μg of membrane protein appropriately bearing FSHR or LHR was analyzed, per well, in competition assays.
Radioligand binding was evaluated in 96 well plates, 100 μl/sample well. The assay buffer was 0.01 M Tris pH 7.4 containing 5 mM MgCl₂ and 0.1% BSA and 0.3 nM ¹²⁵I-hCG (for LHR) or 0.4 nM ¹²⁵I-FSH (for FSHR). […] Nonspecific binding was determined in the presence of 500 nM unlabeled hCG or FSH. Binding was allowed to equilibrate for 90 min at 37° C. with shaking. […] Bound radioactivity was measured in an HP Cobra II gamma counter using a pre-programmed detection window specific for ¹²⁵I emission. Data were analyzed using a single site model and Graph Pad Prizm software.

Values joined by “and” are separate entries in the source; they are usually repeats but may differ in a detail not shown here. Identical values can stand only once.

B1: FSH single β-subunit mutant β E55N/V57T (mutant β-subunit expressed together with the complementary wild type α-subunit) (ligand)
chain 1: not shown
chain 2: NSCELTNITIAIEKEECRFCISINTTWCAGYCYTRDLVYKDPARPKIQKTCTFKNLTYETVRVPGCAHHADSLYTYPVATQCHCGKCDSDSTDCTVRGLGPSYCSFGEMKE
modifications: N-linked glycosylation; extra consensus site at N55 (hyperglycosylated by shift of apparent molecular weight); N-linked glycosylation (glycoprotein made in CHO cells)
notes: also called βE55/V57T
As to B1, the “EC50 (FSHR-coupled cAMP production)” value in the assay with human FSH receptor [1] came to 0.039 nM. In the assay with human FSH receptor [2], the Ki (as a rule, the dissociation constant of the complex between target and ligand, obtained from inhibition or displacement) amounted to 0.86 nM.

B2: GM-1 (FSH double glycosylation mutant: α-subunit H83N and β-subunit E55N/V57T) (ligand)
chain 1: not shown
chain 2: NSCELTNITIAIEKEECRFCISINTTWCAGYCYTRDLVYKDPARPKIQKTCTFKNLTYETVRVPGCAHHADSLYTYPVATQCHCGKCDSDSTDCTVRGLGPSYCSFGEMKE
modifications: N-linked glycosylation (glycoprotein made in CHO-Dukx cells)
notes: Heterodimer; also called GM-1 Lot 1; GM-1 Lot 2
B2: the “FSHR EC50 (cAMP production)” value in the assay with human FSH receptor [3] was 0.0612 nM and 0.0209 nM. Moreover, the Ki with human FSH receptor [4] was 1.9 nM and 2.3 nM.
